Results reported in patent US20250082727A1, “CXCL14-BASED COMPOSITIONS AND METHOD FOR ENHANCING CARTILAGE REGENERATION” (FAR EASTERN MEMORIAL HOSPITAL, priority 2023, published 2025).

What was measured:
[1] = tested on: ADSC; test: Real-time PCR of chondrogenic genes in treated ADSCs; assay type: cell-based, human
Protocol: (§1) To obtain a 3D pellet culture, 1×10^5 MSCs were centrifuged at 1200 rpm for 3 min in polypropylene tubes and cultured for 1 day. To induce chondrogenesis, the pelleted cells were cultured in DMEM-HG (Gibco, cat. no. 121000) containing 1% ITS-Premix (Corning, cat. no. 354352), 1% penicillin streptomycin (Gibco, cat. no. 15240), 1 mM sodium pyruvate (Gibco, cat. no. 11360070), 0.35 mM proline (Sigma-Aldrich, cat. no. P5607), 10 ng/mL TGF-β1 (SinoBio, cat. no. 10804-HNAC), 0.17 mM ascorbic acid 2-phosphate (Sigma-Aldrich, cat. no. A8960), and 100 nM dexamethasone (Sigma-Aldrich, cat. no. D4902). After induction, the chondrogenic differentiation results were evaluated on days 1, 7, 14, and 21.
To identify functional peptide sequences within the CXCL14 protein that enhance chondrogenesis, an CXCL14 peptide (CXCL14-P), which has the amino acid sequence set forth in SEQ ID NO: 2, was used for interacting with CXCR4. […]
MSC-EVs have been reported to have potential for tissue repair; however, naive EVs lack the enhanced capacity to stimulate chondrogenesis and cartilage repair. […] On day 7, ADSCs treated with CXCL14-P-MSC-EVs were analyzed for the expression of SOX9, COL2A1, ACAN, COMP, SOSTDC1, and ITGB1 genes […] using real-time PCR.

[2] = tested on: human ADSCs; test: Flow cytometry of chondrogenic markers in ADSCs; assay type: cell-based; conditions: third day of differentiation
Protocol: (§2) To further verify the presence of chondrogenic proteins in response to CXCL14-P treatment, ADSCs were analyzed during chondrogenesis using biomarkers such as SOX9, Collagen type II, COMP, and CXCR4. On the third day of differentiation, flow cytometry was used to assess these specific chondrogenic markers. […] ADSCs were monitored until day 7, with cellular uptake of FAM-CXCL14-P observed using fluorescence microscopy, the results were shown in FIG. 7E.

[3] = tested on: 3D ADSC spheroids; test: Immunofluorescence staining of chondrogenic proteins in 3D ADSC spheroids; assay type: cell-based; conditions: 3D culture
Protocol: MSC spheroids were fixed with 4% paraformaldehyde (PFA) (PH 7.2) in PBS for 30 minutes at room temperature. The samples were then washed with PBS to remove the PFA. Next, the spheroids were carefully transferred into ice-cold methanol and incubated at −40° C. for 25 minutes. Following fixation, the spheroids were treated with 1 mg/mL sodium borohydride to clean them, and then washed with PBS. After washing, the spheroids were incubated in a blocking solution containing 10% normal rabbit serum and 1x PBS with 0.1% sodium azide for 6 hours or overnight. The samples were then incubated with primary antibodies against Collagen type II (ab34712, Abcam), SOX9 (ab185966, Abcam), COMP (sc-374660, Santa Cruz), and Aggrecan (MA3-16888, Invitrogen) for 24 hours at 4° C. Subsequently, the samples were incubated with Alexa Fluor 488-, Alexa Fluor 555-, or Alexa Fluor 647-conjugated secondary antibodies for 1 hour at room temperature. Fluorescence images were acquired using a Leica SP8 STED confocal microscope.

[4] = tested on: ADSC pellets; test: Alcian blue staining of ADSC pellets; assay type: cell-based
Protocol: as §1, §2

[5] = tested on: SOSTDC1; test: qPCR validation of SOSTDC1 after CXCL14 treatment during MSC chondrogenesis; assay type: cell-based, human
[6] = tested on: ACLT-induced OA; test: ACLT-induced knee OA mouse model (Safranin O, collagen II IHC, OARSI score); assay type: in vivo, C57BL/6 mice; conditions: for OARSI score: ACLT mice, ACLT group 5.5, sham 0.17
From the text: Surgical ACLT is the most commonly used for generating an animal model of OA. In this study, 8-week-old specific-pathogen-free C57BL/6 mice were subjected to ACLT and medial collateral ligament (MCL) transection for establishing an OA mouse model (n=6). First, the knee joints of the hind limbs were incised along the medial edge of the patellar ligament. After the joint capsule was exposed, the ACL and MCL were transected. […] After deparaffinization, the sections were stained with hematoxylin for 3 min and differentiated in 1% acid alcohol for 15 s, followed by staining in 0.02% aqueous fast green for 3 min and counterstaining with 0.1% Safranin O for 3 min. Finally, the sections were dehydrated in serial dilutions of ethanol, cleared in xylene, mounted onto glass slides by using neutral gum. Each stained area was observed under a light microscope and photographed using a photomicroscope equipped with a CCD video camera.

[7] = tested on: IPFP-MSC from OA patients; test: Alcian blue staining of GAG during chondrogenesis of IPFP-MSC pellets; assay type: cell-based, human; conditions: day 3
Protocol: The IPFP tissue was washed repeatedly with Dulbecco's phosphate-buffered saline (Gibco, cat. no. 21600) containing 5% penicillin-streptomycin and amphotericin B solution (Gibco, cat. no. 15240). The tissue was minced and subjected to enzymatic digestion with 0.1% type I collagenase (Gibco, cat. no. 17100017) diluted in minimum essential medium α (α-MEM, Gibco, cat. no. 120000) and 1% bovine serum albumin (Sigma, cat. no. A7906) for 18 h at 37° C. After digestion, an equal amount of culture medium containing 10% fetal bovine serum was added to stop collagenase activity. The cell solution was sieved through a 100-μm mesh and centrifuged at 500 g for 5 min. The cell pellets were resuspended in culture medium (supplemented with 10% FBS, 1% penicillin-streptomycin, and amphotericin B) and seeded in a 10-cm culture dish. The medium was changed every 72 h until the cells reached 80%-90% confluence.
To obtain a 3D pellet culture, 1×10^5 MSCs were centrifuged at 1200 rpm for 3 min in polypropylene tubes and cultured for 1 day. […]
CXCL14 was analyzed to determine the stimulation of chondrogenesis and cartilage regeneration. CXCL14 was also analyzed to determine whether CXCL14 can induce chondrogenesis by using IPFP-MSC from OA patients treated with the recombinant protein CXCL14 and investigating the glycosaminoglycan (GAG) content by Alcian blue staining. […]

[8] = tested on: CXCL14, SOX9, COL2A1, and ACAN mRNA expressions; test: Real-time PCR of chondrogenic genes under TGF-b stimulation during chondrogenesis; assay type: cell-based; conditions: under a low dose of TGF-β stimulation
Protocol: as §1
To better understand the molecular mechanism relating to the control of chondrogenesis modulated by CXCL14, the chondrogenic gene expressions were investigated during chondrogenesis.

Molecule	CXCL14, SOX9, and COL2A1 gene expression ([1]; ADSC, real-time PCR on day 7, compared to CXCL14 protein)	SOX9, COL2A1, COMP, and ACAN gene expression ([1]; one-day treatment then fresh medium, real-time PCR on day 7)	chondrogenic potential (SOX9, Collagen type II, COMP, CXCR4 markers) [2]	expressions of SOX9, Collagen type II, and Aggrecan (immunofluorescence) [3]	GAG content (Alcian blue staining) ([4]; ADSC pellets during chondrogenesis)	GAG deposition (Alcian blue staining) ([4]; ADSC pellets with varying ratios, day 7)	SOSTDC1 expression (qPCR) ([5]; IPFP-MSCs from OA donors)	SOSTDC1 expression (qPCR) ([5]; human ADSCs from non-OA donors)	OARSI score ([6]; CXCL14 10 ng)	OARSI score ([6]; CXCL14 20 ng)	cartilage repair, staining GAG content and type II collagen ([6]; ACLT-induced OA model)	GAG deposition (Alcian blue staining) [7]	CXCL14, SOX9, COL2A1, and ACAN gene expression [8]
CXCL14-P: CXCL14 peptide with the amino acid sequence SEQ ID NO: 2, produced through solid-phase peptide synthesis (ITTKSVSRYRGQEH; listed as Homo sapiens)	stronger chondrogenic gene expression compared to the protein	significantly induced	enhances the chondrogenic potential	consistent results	higher GAG content	increased GAG deposition	–	–	–	–	–	–	–
CXCL14: small cytokine of the CXC chemokine family, Homo sapiens CXCL14, amino acid sequence SEQ ID NO: 1 (protein, listed as Homo sapiens) MSLLPRRAPPVSMRLLAAALLLLLLALYTARVDGSKCKCSRKGPKIRYSDVKKLEMKPKYPHCEEKMVIITTKSVSRYRGQEHCLHPKLQSTKRFIKWYNAWNEKRRVYEE	–	–	–	elevate	–	–	upregulated expression	upregulated expression	2.7	1	dose-dependent stimulated cartilage repair	increased	induce
